Data: US20260216365A1, “ANTIBODY-DRUG CONJUGATES AGAINST THE RECEPTOR TYROSINE KINASE EPHA5” (Rutgers, The State University of New Jersey, priority 2021, published 2026)
Positions count from the first letter of the chain named. “And” between values parts separate entries of the source, which are not always exact repeats. Equal values may be shown once.

Key:
[1] = Thermal ramp stability (UNcle, Sypro Orange fluorescence and static light scattering); format: physicochemical
Excerpt: Thermal ramp stability experiments (Tm and Tagg) are well established methods for ranking proteins and formulations for stability. A protein's denaturation profile provides information about its thermal stability and represents a structural ‘fingerprint’ for assessing structural and formulation buffer modifications. A widely used measure of the thermal structural stability of a protein is the temperature at which it unfolds from the native state to a denatured state. For many proteins, this unfolding process occurs over a narrow temperature range and the mid-point of this transition is termed ‘melting temperature’ or ‘Tm’. To determine the melting temperature of a protein, UNcle measures the fluorescence of Sypro Orange (which binds to exposed hydrophobic regions of proteins) as the protein undergoes conformational changes.
Samples for each variant were formulated in PBS and Sypro Orange at a final concentration of 1 mg/mL. 9 μL of each sample mixture was loaded in duplicate into UNi microcuvettes. Samples were subjected to a thermal ramp from 25-95° C., with a ramp rate of 0.3° C./minute and excitation at 473 nm. Full emission spectra were collected from 250-720 nm, and the area under the curve between 510-680 nm was used to calculate the inflection points of the transition curves (Tonset and Tm). Monitoring of static light scattering (SLS) at 473 nm allowed the detection of protein aggregation, and Tagg (onset of aggregation) was calculated from the resulting SLS profiles. Thermal stability values determined lie in a broad range from 57.9 to 69.6° C. (Tm1), 55.1 to 65.2° C. (Tonset) and 65.6 to 70.2° C. (Tagg) with the humanized leads generally showing improved profiles when compared to the chimeric antibody. […] All humanized antibodies appear to have a higher Tm1, Tonset and Tagg compared to the chimeric antibody.

[2] = target: T1, recombinant human EphA5 (rhEphA5) antigen (Homo sapiens, UniProt P54756); assay: Biacore multi-cycle kinetic analysis of purified antibodies, 1:1 model; format: binding; settings: for binding to EphA5 relative to the chimeric antibody (VH0/VK0): purified antibodies, multi-cycle kinetics
T1 construct: purchased R and D systems 3036-A5
T1 sequence (P54756 25-573 limits assumed): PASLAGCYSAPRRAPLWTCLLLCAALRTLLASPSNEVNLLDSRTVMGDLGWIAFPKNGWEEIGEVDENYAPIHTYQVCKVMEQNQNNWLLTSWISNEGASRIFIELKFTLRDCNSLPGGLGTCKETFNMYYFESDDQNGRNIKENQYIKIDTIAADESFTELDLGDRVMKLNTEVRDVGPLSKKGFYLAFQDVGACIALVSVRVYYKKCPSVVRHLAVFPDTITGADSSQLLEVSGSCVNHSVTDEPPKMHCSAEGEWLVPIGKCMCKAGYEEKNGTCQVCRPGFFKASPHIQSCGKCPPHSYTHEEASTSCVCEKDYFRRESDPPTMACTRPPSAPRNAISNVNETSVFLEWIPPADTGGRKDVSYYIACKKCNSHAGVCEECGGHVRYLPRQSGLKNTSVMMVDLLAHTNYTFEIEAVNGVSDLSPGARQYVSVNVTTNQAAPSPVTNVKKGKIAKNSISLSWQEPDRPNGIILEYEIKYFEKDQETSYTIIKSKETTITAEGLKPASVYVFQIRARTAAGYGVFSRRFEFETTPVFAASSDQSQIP
Experimental: In order to assess the binding of the six lead humanized variants to rhEphA5 antigen, multi-cycle kinetic analysis (FIG. 68) was performed on purified material. Kinetic experiments were performed at 25° C. on a Biacore T200 running Biacore T200 Control software V2.0.1 and Evaluation software V3.0 (GE Healthcare, Uppsala, Sweden).
HBS-P+ (GE Healthcare, Uppsala, Sweden), supplemented with 1% BSA w/v (Sigma, Dorset, UK) was used as running buffer as well as for ligand and analyte dilutions. Purified lead antibodies were diluted to 0.5 μg/mL in running buffer and at the start of each cycle, loaded onto Fc2, Fc3 and Fc4 of an anti-human IgG CM5 sensor chip (GE Healthcare, Little Chalfont, UK). Antibodies were captured at a flow rate of 10 μl/min to give an immobilization level (RL) of ~50 RU. The surface was then allowed to stabilize.
Multi-cycle kinetic data was obtained using recombinant EphA5 as the analytes injected at a flow rate of 30 μl/min to minimize any potential mass transfer effects. A five point, three-fold dilution range from 1.11 nM to 270 nM of EphA5 was prepared in running buffer. For each concentration, the association phases were monitored for 210 seconds and the dissociation phase was measured for 900 seconds. Regeneration of the sensor chip surface was conducted between cycles using two injections of 3 M MgCl2. Multiple repeats of a blank and of EphA5 were programmed into the kinetic run in order to check the stability of both the surface and analyte over the kinetic cycles.
The signal from the reference channel Fc1 (no IgG captured) was subtracted from that of Fc2, Fc3 and Fc4 to correct for bulk effect and differences in non-specific binding to a reference surface. The signal from each IgG blank run (IgG captured but no antigen) was subtracted to correct for differences in surface stability. The double referenced sensorgrams were fitted with the Langmuir (1:1) binding model where the closeness of fit of the data to the model is evaluated using the Chi square value which describes the deviation between the experimental and fitted (observed and expected) curves. The fitting algorithm seeks to minimize the Chi square value.
A summary of the kinetic constants determined from the 1:1 model fitted curves is shown in FIG. 19 with fitted curves shown in FIG. 20.

[3] = target: T2, H460 cell line stably expressing EphA5 (Homo sapiens, UniProt P54756); assay: Flow cytometry analysis of cell binding, EphA5-positive cells; settings: starting 10 μg/ml, four-fold serial dilution, 4° C. 30 minutes
T2 construct: A H460 cell line stably expressing EphA5 (provided by Rutgers) was used; endogenous in cells; host or cells: H460 human lung carcinoma cells (provided by Rutgers)
T2 sequence (P54756 25-1037): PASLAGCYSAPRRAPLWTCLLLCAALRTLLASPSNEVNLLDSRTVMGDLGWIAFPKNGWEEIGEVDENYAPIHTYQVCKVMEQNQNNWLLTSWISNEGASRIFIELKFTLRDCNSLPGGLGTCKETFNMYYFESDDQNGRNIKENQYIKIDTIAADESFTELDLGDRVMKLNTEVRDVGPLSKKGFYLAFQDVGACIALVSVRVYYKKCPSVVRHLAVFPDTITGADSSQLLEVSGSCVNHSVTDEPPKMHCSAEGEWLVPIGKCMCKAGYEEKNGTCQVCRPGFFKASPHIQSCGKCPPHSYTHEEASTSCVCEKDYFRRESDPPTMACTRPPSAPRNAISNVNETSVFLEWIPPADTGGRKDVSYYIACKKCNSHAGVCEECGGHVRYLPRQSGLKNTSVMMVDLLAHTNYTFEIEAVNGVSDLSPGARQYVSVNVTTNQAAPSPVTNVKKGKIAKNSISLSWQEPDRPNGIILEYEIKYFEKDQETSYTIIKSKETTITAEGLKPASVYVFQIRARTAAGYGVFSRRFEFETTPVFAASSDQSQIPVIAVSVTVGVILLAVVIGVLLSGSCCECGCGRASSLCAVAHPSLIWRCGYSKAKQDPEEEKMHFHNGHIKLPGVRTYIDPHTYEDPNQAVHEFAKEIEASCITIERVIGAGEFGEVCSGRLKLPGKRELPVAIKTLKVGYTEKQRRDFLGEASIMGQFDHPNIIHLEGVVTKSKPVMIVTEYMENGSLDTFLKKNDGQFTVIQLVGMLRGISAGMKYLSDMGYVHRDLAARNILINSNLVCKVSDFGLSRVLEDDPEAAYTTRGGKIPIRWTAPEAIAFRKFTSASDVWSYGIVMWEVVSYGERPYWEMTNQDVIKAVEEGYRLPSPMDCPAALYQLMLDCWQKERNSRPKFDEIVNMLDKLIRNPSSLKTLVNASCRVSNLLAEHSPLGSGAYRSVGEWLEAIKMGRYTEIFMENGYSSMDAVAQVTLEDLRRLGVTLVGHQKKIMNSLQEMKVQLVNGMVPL
Experimental: (§1) A H460 cell line stably expressing EphA5 (provided by Rutgers) was used, alongside H226 cells as a negative control, to test for antibody binding in a flow cytometry assay. The cell lines were first assessed for target expression using 10 μg/ml of the murine 11C12 provided by Rutgers) and MolgG1 non-binging control (Biolegend, California, US). Goat anti-mouse Alexa Fluor 647 (Thermo Fisher, Loughborough, UK) was used for antibody detection.
(§2) For cell binding assays, both cell lines were resuspended in FACS buffer (PBS+1% BSA+0.1% sodium azide) and seeded in 96 well U bottom plates at 1×105 (100 μl) cells per well. The chimeric and six purified humanized variants were tested in the assay alongside the 11C12 murine positive control, MolgG1 and HulgG1 non-binding controls. Samples were prepared at a starting concentration of 10 μg/ml in FACS buffer and underwent a four-fold seven point serial dilution for testing with H460 cells and a three-fold three point serial dilution for the H226 cells. […] Median fluorescence intensity (MFI) was measured using an Attune NxT Flow Cytometer (Thermo Fisher, Loughborough, UK) and 10,000 gated events were acquired per sample. For data analysis, live cell populations were gated based on the forward and side scatter dot plot allowing the Alexa Fluor 647 MFI values to be measured in the RL1 channel.

[4] = tested on: H226 cells (EphA5−); assay: Flow cytometry analysis of cell binding, EphA5-negative control cells; set-up: species or system human; settings: starting 10 μg/ml, three-fold serial dilution
Experimental: as §1, §2

B1: VH0/VK0: chimeric anti-EphA5 antibody, murine 11C12 variable regions (VH SEQ ID NO:1, VL SEQ ID NO:8), human IgG1/kappa constant regions (antibody, V domains shown)
VH: EVTLKESGGGLVQPGGSRKLSCAASGFTFSTFGIHWVRQAPEKGLEWVAYISGASTTIYYADTVKGRFTISRDNPKNTLFLQMTSLRSEDTAMYYCARYGTSFPYGLDYWGQGTSVTVSS
VL: DIVMTQSPGSLAVSLGQRATISCKASQSVDYDGDSYMNWYQQKPGQPPKLLIYGASNLESGIPARFSGSGSGTDFTLNIHPVEEEDAASYYCQQSNEDPFTFGSGTKLEIK
modifications: human IgG1/kappa constant regions without entry
- Average Tm2 (° C.) ([1]; average of duplicates): 65.83 °C
- Average Tonset (° C.) ([1]; average of duplicates): 55.1 °C
- Average Tm1 (° C.) ([1]; average of duplicates, 1 mg/mL in PBS): 57.9 °C
- Average Tagg 473 (° C.) ([1]; average of duplicates, SLS at 473 nm): 65.6 °C
- Tonset (° C.) ([1]; single replicate): 54.92 °C and 55.23 °C
- Tm2 (° C.) ([1]; single replicate, 1 mg/mL in PBS): 65.83 °C
- Tm1 (° C.) ([1]; single replicate, 1 mg/mL in PBS, ramp 25-95° C.): 57.83 °C and 57.87 °C
- Tagg 473 (° C.) ([1]; single replicate, SLS at 473 nm): 65.72 °C and 65.60 °C
- number of thermal transitions detected ([1]; thermal ramp 25-95° C.): two transitions
- kd ([2]; Biacore T200, 25° C., IgG captured on anti-human IgG chip): 0.0015 s⁻¹
- RMAX ([2]; fitted 1:1 model): 47.8

B2: VH3/VK4: humanized anti-EphA5 IgG1/kappa antibody; VH SEQ ID NO:4, VL SEQ ID NO:12 (antibody, V domains shown)
VH: B1 VH with T3Q, K5V, R18L, E42G, P75S, F80Y, T84N, S115L
VL: DIVMTQSPDSLAVSLGERATINCKSSQSVDYDGDSYMNWYQQKPGKAPKLLIYGASNLESGIPDRFSGSGSGTDFTLTISRLEPEDAASYYCQQSNEDPFTFGQGTKLEIK
- binding to EphA5 relative to the chimeric antibody (VH0/VK0) [2]: within two-fold of the chimeric antibody

B3: 11C12: anti-human EphA5 monoclonal murine antibody, parental antibody and positive control (antibody, V domains shown)
VH: B1 VH
VL: B1 VL
- binding to H460 (EphA5+) cells, MFI dose response [3]: bound to the positive cell line in a concentration dependent manner
- binding to H226 (EphA5−) cells [4]: no binding

B4: VH4/VK4: humanized anti-EphA5 IgG1/kappa antibody; VH SEQ ID NO:5, VL SEQ ID NO:12 (antibody, V domains shown)
VH: B1 VH with T3Q, K5V, R18L, E42G, P75S, F80Y, T84N, S88A, M93V, S115L
VL: B2 VL
- binding to EphA5 relative to the chimeric antibody (VH0/VK0) [2]: within two-fold of the chimeric antibody

B5: VH5/VK4: humanized anti-EphA5 IgG1/kappa antibody; VH SEQ ID NO:6, VL SEQ ID NO:12 (antibody, V domains shown)
VH: EVQLVESGGGLVQPGGSLKLSCAASGFTFSTFGIHWVRQAPGKGLEWVAYISGASTTIYYADSVKGRFTISRDNSKNTLYLQMNSLRAEDTAVYYCARYGTSFPYGLDYWGQGTLVTVSS
VL: B2 VL
- ranking by Tagg (SLS profiles) ([1]; among the chimeric and six lead humanized variants): highest Tagg values
- binding to EphA5 relative to the chimeric antibody (VH0/VK0) [2]: within two-fold of the chimeric antibody

B6: VH5/VK2: humanized anti-EphA5 IgG1/kappa antibody; VH SEQ ID NO:6, VL SEQ ID NO:10 (antibody, V domains shown)
VH: B5 VH
VL: B2 VL with S25A
- binding to EphA5 relative to the chimeric antibody (VH0/VK0) [2]: within two-fold of the chimeric antibody
